Experimental data as given in patent US20130058939.

Target: mouse NMDA receptor NR1 subunit, P35438

B1: rt-PA (alteplase), recombinant human t-PA (protein)
chain: SYQVICRDEKTQMIYQQHQSWLRPVLRSNRVEYCWCNSGRAQCHSVPVKSCSEPRCFNGGTCQQALYFSDFVCQCPEGFAGKCCEIDTRATCYEDQGISYRGTWSTAESGAECTNWNSSALAQKPYSGRRPDAIRLGLGNHNYCRNPDRDSKPWCYVFKAGKYSSEFCSTPACSEGNSDCYFGNGSAYRGTHSLTESGASCLPWNSMILIGKVYTAQNPSAQALGLGKHNYCRNPDGDAKPWCHVLKNRRLTWEYCDVPSCSTCGLRQYSQPQFRIKGGLFADIASHPWQAAIFAKHRRSPGERFLCGGILISSCWILSAAHCFQERFPPHHLTVILGRTYRVVPGEEEQKFEVEKYIVHKEFDDDTYDNDIALLQLKSDSSRCAQESSVVRTVCLPPADLQLPDWTECELSGYGKHEALSPFYSERLKEAHVRLYPSSRCTSQHLLNRTVTDNMLCAGDTRSGGPQANLHDACQGDSGGPLVCLNDGRMTLVGIISWGLGCGQKDVPGVYTKVTNYLDWIRDNMRP
  net integrated increase in [Ca2+]i evoked by NMDA after 15 min exposure to t-PA (20 µg/ml): the net integrated increase in [Ca^2+]i (area under the curve expressed in arbitrary units) was enhanced by 37%
